One assay has as its target T1, human Trop-2 (His) (human, UniProt P09758).
T1 chain: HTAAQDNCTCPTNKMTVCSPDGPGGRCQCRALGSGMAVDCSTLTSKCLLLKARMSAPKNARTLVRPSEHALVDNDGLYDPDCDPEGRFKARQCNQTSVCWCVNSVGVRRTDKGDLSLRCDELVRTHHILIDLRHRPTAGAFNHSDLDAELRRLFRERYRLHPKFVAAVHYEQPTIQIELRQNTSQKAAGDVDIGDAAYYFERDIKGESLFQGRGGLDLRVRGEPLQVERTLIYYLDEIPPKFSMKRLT
Put plainly: SPR. (In general: Surface plasmon resonance follows binding to a sensor surface in real time, without labels.)

The target of a further assay is hPD-L1(ECD)-His (human, UniProt Q9NZQ7). As to the kind of experiment: SPR supernatant.
Sequence of hPD-L1(ECD)-His (Q9NZQ7 19-238): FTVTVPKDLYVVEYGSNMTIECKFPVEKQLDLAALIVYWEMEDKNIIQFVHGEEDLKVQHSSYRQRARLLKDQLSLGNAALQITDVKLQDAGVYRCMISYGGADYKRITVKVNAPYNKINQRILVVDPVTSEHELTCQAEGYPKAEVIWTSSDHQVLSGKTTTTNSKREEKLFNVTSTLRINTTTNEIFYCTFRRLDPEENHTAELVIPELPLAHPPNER

B1: Trop-2-YC-82hz-4 (antibody, V domains shown)
VH: EVQVVESGGGLVQPGGSLRLSCAASGYIFSNSGMGWYRQAPGQGLELVAAISSGGTTHYADSVKGRFTISRDNSKNTLYLQMNSLRAEDTAVYYCNGDRYYSGTDVFGSWGQGTLVTVSS
As for B1, the Kd with human Trop-2 (His) is 75.1 nM.

B2: Trop-2-YC-82hz-3 (antibody, V domains shown)
VH: EVQVVESGGGLVQPGGSLRLSCAASGYIFSNSGMGWYRQAPGKGLELVAAISSGGTTHYAQSVKGRFTISRDNSKNTVYLQMNSLRPEDTAVYYCNGDRYYSGTDVFGSWGQGTLVTVSS
On to B2, for which, in the assay with human Trop-2 (His), the affinity, expressed as Kd, was 48.2 nM.

B3: Trop-2-YC-82hz-2 (antibody, V domains shown)
VH: EVQVVESGGGLVQPGGSLRLSCATSGYIFSNSGMGWYRQAPGKQRELVAAISSGGTTHYADSVKGRFTISRDNSKNTVYLQMNSLRAEDTAVYYCNGDRYYSGTDVFGSWGQGTLVTVSS
On to B3, for which, in the assay with human Trop-2 (His), the dissociation constant Kd worked out at 23.8 nM.

B4: Trop-2-YC-82hz-5 (antibody, V domains shown)
VH: EVQVVESGGGLVQPGGSLRLSCAASGYIFSNSGMGWYRQAPGQGLELVAAISSGGTTHYAQSVKGRFTISRDNSKNTLYLQMNSLRAEDTAVYYCNGDRYYSGTDVFGSWGQGTLVTVSS
The molecule B4 yielded a Kd with human Trop-2 (His) of 76.5 nM.

B5: Trop-2-YC-82hz-1 (antibody, V domains shown)
VH: EVQVVESGGGLVQPGGSLRLSCATSGYIFSNSGMGWYRQAPGKGLELVAAISSGGTTHYADSVKGRFTISRDNSKNTVYLQMNSLRAEDTAVYYCNGDRYYSGTDVFGSWGQGTLVTVSS
As for B5, in the assay with human Trop-2 (His), the Kd is 38.1 nM.

B6: PD-L1-1.168.15-z1-uIgG1K (antibody, V domains shown)
VH: EVQLVQSGAEVKKPGATVKISCKVSGFNIEDTYIYWVQQAPGKGLEWMGWIDPANYNTKYDPRFQDRVTITADTSTDTAYMELSSLRSEDTAVYYCARGLRLLMDYWGQGTTVTVSS
VL: DIQLTQSPSFLSASVGDRVTITCKASQNVHTSLAWYQQKPGKSPKLLIYLASNRHTGVPSRFSGSGSGTEFTLTISSLQPEDFATYYCLQHWNYPLTFGQGTKLEIKR
With B6, the Kd with hPD-L1(ECD)-His worked out at 1.09 nM.

B7: PD-L1-1.168.15-z5-uIgG1K (antibody, V domains shown)
VH: EVQLVQSGAEVKKPGATVKISCKVSGFNIEDTYIYWVQQAPGKGLEWMGWIDPANYNTKYDPRFQDRVTITADTSTDTAYMELSSLRSEDTAVYYCARGLRLLMDYWGQGTTVTVSS
VL: DIQLTQSPSFLSASVGDRVTITCKASQNVHTSLAWYQQKPGKSPKALIYLASNRHTGVPSRFSGSGSGTEFTLTISSLQPEDFATYYCLQHWNYPLTFGQGTKLEIKR
As for B7, in the assay with hPD-L1(ECD)-His, the Kd came to 1.24 nM. This Kd and that of the molecule before are within 1.5-fold of each other.

B8: PD-L1-1.168.15-z2-uIgG1K (antibody, V domains shown)
VH: EVQLVQSGAEVKKPGATVKISCKVSGFNIEDTYIYWVQQAPGKGLEWMGWIDPANYNTKYDPRFQDRVTITADTSTDTAYMELSSLRSEDTAVYYCARGLRLLMDYWGQGTTVTVSS
VL: DIQLTQSPSFLSASVGDRVTITCKASQNVHTSLAWYQQKPGKAPKALIYLASNRHTGVPSRFSGSGSGTEFTLTISSLQPEDFATYYCLQHWNYPLTFGQGTKLEIKR
Turning to B8, the Kd in the assay with hPD-L1(ECD)-His was determined as 1.4 nM.

B9: PD-L1-1.168.15-z16-uIgG1K (antibody, V domains shown)
VH: EVQLVQSGAEVKKPGATVKISCKVSGFNIEDTYIYWVQQAPGKGLEWIGWIDPANYNTKYDPRFQDRVTITVDTSTNTAYMELSSLRSEDTAVYYCARGLRLLMDYWGQGTTVTVSS
VL: DIQMTQSPSFLSASVGDRVTITCKASQNVHTSLAWYQQKPGKSPKALIYLASNRHTGVPSRFSGSGSGTEFTLTISSLQPEDFATYFCLQHWNYPLTFGQGTKLEIKR
In the assay with hPD-L1(ECD)-His, B9 returned a Kd of 1 nM.

B10: PD-L1-1.168.15-z17-uIgG1K (antibody, V domains shown)
VH: EVQLVQSGAEVKKPGATVKISCKVSGFNIEDTYIYWVQQAPGKGLEWMGWIDPANYNTKYDPRFQDRVTVTVDTSTNTAYMELSSLRSEDTAVYYCARGLRLLMDYWGQGTTVTVSS
VL: DIQMTQSPSFLSASVGDRVTITCKASQNVHTSLAWYQQKPGKSPKALIYLASNRHTGVPSRFSGSGSGTEFTLTISSLQPEDFATYFCLQHWNYPLTFGQGTKLEIKR
For the molecule B10, the dissociation constant Kd with hPD-L1(ECD)-His came to 1.67 nM.

B11: PD-L1-1.168.15-z0-uIgG1K (antibody, V domains shown)
VH: EVQLVQSGAEVKKPGATVKISCKVSGFNIEDTYIYWVQQAPGKGLEWMGWIDPANYNTKYDPRFQDRVTITADTSTDTAYMELSSLRSEDTAVYYCARGLRLLMDYWGQGTTVTVSS
VL: DIQLTQSPSFLSASVGDRVTITCKASQNVHTSLAWYQQKPGKAPKLLIYLASNRHTGVPSRFSGSGSGTEFTLTISSLQPEDFATYYCLQHWNYPLTFGQGTKLEIKR
Consider B11, for which, in the assay with hPD-L1(ECD)-His, the Kd stood at 1.29 nM.

B12: PD-L1-1.168.15-z202-uIgG1K (antibody, V domains shown)
VH: EVQLQQSGAELVKPGASVKLSCTVSGFNIEDTYIYWVKQRPEQGLEWIGWIDPANYNTKYDPRFQDKATVTVDTSSNTAYMHLSSLTSEDTAVYYCARGLRLLMDYWGQGTSVTVSS
VL: DIQMTQSPSFLSASVGDRVTITCKASQNVHTSLAWYQQKPGKSPKALIYLASNRHTGVPSRFSGSGSGTEFTLTISSLQPEDFATYFCLQHWNYPLTFGQGTKLEIKR
For the molecule B12, in the assay with hPD-L1(ECD)-His, the Kd is 0.501 nM.

B13: PD-L1-1.168.15-z18-uIgG1K (antibody, V domains shown)
VH: EVQLVQSGAEVKKPGATVKLSCKVSGFNIEDTYIYWVQQAPGKGLEWIGWIDPANYNTKYDPRFQDRVTVTVDTSTNTAYMELSSLRSEDTAVYYCARGLRLLMDYWGQGTTVTVSS
VL: DIQMTQSPSFLSASVGDRVTITCKASQNVHTSLAWYQQKPGKSPKALIYLASNRHTGVPSRFSGSGSGTEFTLTISSLQPEDFATYFCLQHWNYPLTFGQGTKLEIKR
Regarding B13, binding in the assay with hPD-L1(ECD)-His was put at a Kd of 1.86 nM.

B14: PD-L1-1.168.15-z6-uIgG1K (antibody, V domains shown)
VH: EVQLVQSGAEVKKPGATVKISCKVSGFNIEDTYIYWVQQAPGKGLEWMGWIDPANYNTKYDPRFQDRVTITVDTSTDTAYMELSSLRSEDTAVYYCARGLRLLMDYWGQGTTVTVSS
VL: DIQLTQSPSFLSASVGDRVTITCKASQNVHTSLAWYQQKPGKAPKALIYLASNRHTGVPSRFSGSGSGTEFTLTISSLQPEDFATYYCLQHWNYPLTFGQGTKLEIKR
B14 returned a Kd with hPD-L1(ECD)-His of 0.998 nM. Against the preceding molecule, the Kd is about 1.9-fold lower.

B15: PD-L1-1.168.15-z201-uIgG1K (antibody, V domains shown)
VH: EVQLVQSGAEVKKPGATVKLSCKVSGFNIEDTYIYWVQQAPGKGLEWIGWIDPANYNTKYDPRFQDRVTVTVDTSTNTAYMELSSLRSEDTAVYYCARGLRLLMDYWGQGTTVTVSS
VL: DIVMTQSQKFMSSSVGDRVSITCKASQNVHTSLAWYQQRPGQSPKALIYLASNRHTGVPDRFTGSGSGTDFTLTISNVQSEDLADYFCLQHWNYPLTFGAGTKLELRR
B15 showed a Kd in the assay with hPD-L1(ECD)-His of 0.844 nM.

B16: PD-L1-1.168.15-z14-uIgG1K (antibody)
chain 1: not shown
chain 2: DIQMTQSPSFLSASVGDRVTITCKASQNVHTSLAWYQQKPGKSPKALIYLASNRHTGVPSRFSGSGSGTEFTLTISSLQPEDFATYFCLQHWNYPLTFGQGTKLEIKRTVAAPSVFIFPPSDEQLKSGTASVVCLLNNFYPREAKVQWKVDNALQSGNSQESVTEQDSKDSTYSLSSTLTLSKADYEKHKVYACEVTHQGLSSPVTKSFNRGEC
In turn, B16 came in with a Kd with hPD-L1(ECD)-His of 1.07 nM.

B17: PD-L1-1.168.15-z7-uIgG1K (antibody)
chain 1: not shown
chain 2: DIQLTQSPSFLSASVGDRVTITCKASQNVHTSLAWYQQKPGKSPKALIYLASNRHTGVPSRFSGSGSGTEFTLTISSLQPEDFATYYCLQHWNYPLTFGQGTKLEIKRTVAAPSVFIFPPSDEQLKSGTASVVCLLNNFYPREAKVQWKVDNALQSGNSQESVTEQDSKDSTYSLSSTLTLSKADYEKHKVYACEVTHQGLSSPVTKSFNRGEC
In turn, B17 displayed a Kd with hPD-L1(ECD)-His of 1.01 nM.

B18: PD-L1-1.168.15-z13-uIgG1K (antibody)
chain 1: not shown
chain 2: DIQLTQSPSFLSASVGDRVTITCKASQNVHTSLAWYQQKPGKSPKALIYLASNRHTGVPSRFSGSGSGTEFTLTISSLQPEDFATYFCLQHWNYPLTFGQGTKLEIKRTVAAPSVFIFPPSDEQLKSGTASVVCLLNNFYPREAKVQWKVDNALQSGNSQESVTEQDSKDSTYSLSSTLTLSKADYEKHKVYACEVTHQGLSSPVTKSFNRGEC
Turning to B18, the affinity with hPD-L1(ECD)-His, expressed as Kd, was 1.04 nM. This Kd and that of the molecule before are within 1.5-fold of each other.

B19: PD-L1-1.168.15-z8-uIgG1K (antibody)
chain 1: not shown
chain 2: DIQLTQSPSFLSASVGDRVTITCKASQNVHTSLAWYQQKPGKSPKALIYLASNRHTGVPSRFSGSGSGTEFTLTISSLQPEDFATYYCLQHWNYPLTFGQGTKLEIKRTVAAPSVFIFPPSDEQLKSGTASVVCLLNNFYPREAKVQWKVDNALQSGNSQESVTEQDSKDSTYSLSSTLTLSKADYEKHKVYACEVTHQGLSSPVTKSFNRGEC
As to B19, in the assay with hPD-L1(ECD)-His, the Kd was 1.13 nM.

B20: PD-L1-1.168.15-z12-uIgG1K (antibody)
chain 1: not shown
chain 2: DIQMTQSPSFLSASVGDRVTITCKASQNVHTSLAWYQQKPGKSPKALIYLASNRHTGVPSRFSGSGSGTEFTLTISSLQPEDFATYYCLQHWNYPLTFGQGTKLEIKRTVAAPSVFIFPPSDEQLKSGTASVVCLLNNFYPREAKVQWKVDNALQSGNSQESVTEQDSKDSTYSLSSTLTLSKADYEKHKVYACEVTHQGLSSPVTKSFNRGEC
Consider B20, for which the Kd in the assay with hPD-L1(ECD)-His was 1.13 nM.

B21: PD-L1-1.168.15-z10-uIgG1K (antibody)
chain 1: not shown
chain 2: DIQMTQSPSFLSASVGDRVTITCKASQNVHTSLAWYQQKPGKSPKALIYLASNRHTGVPSRFSGSGSGTEFTLTISSLQPEDFATYYCLQHWNYPLTFGQGTKLEIKRTVAAPSVFIFPPSDEQLKSGTASVVCLLNNFYPREAKVQWKVDNALQSGNSQESVTEQDSKDSTYSLSSTLTLSKADYEKHKVYACEVTHQGLSSPVTKSFNRGEC
Regarding B21, in the assay with hPD-L1(ECD)-His, the affinity, expressed as Kd, was 0.995 nM.

B22: PD-L1-1.168.15-z15-uIgG1K (antibody)
chain 1: not shown
chain 2: DIQMTQSPSFLSASVGDRVTITCKASQNVHTSLAWYQQKPGKSPKALIYLASNRHTGVPSRFSGSGSGTEFTLTISSLQPEDFATYFCLQHWNYPLTFGQGTKLEIKRTVAAPSVFIFPPSDEQLKSGTASVVCLLNNFYPREAKVQWKVDNALQSGNSQESVTEQDSKDSTYSLSSTLTLSKADYEKHKVYACEVTHQGLSSPVTKSFNRGEC
Consider B22, for which binding with hPD-L1(ECD)-His was put at a Kd of 1.19 nM.

B23: PD-L1-1.168.15-z9-uIgG1K (antibody)
chain 1: not shown
chain 2: DIQLTQSPSFLSASVGDRVTITCKASQNVHTSLAWYQQKPGKSPKALIYLASNRHTGVPSRFSGSGSGTEFTLTISSLQPEDFATYFCLQHWNYPLTFGQGTKLEIKRTVAAPSVFIFPPSDEQLKSGTASVVCLLNNFYPREAKVQWKVDNALQSGNSQESVTEQDSKDSTYSLSSTLTLSKADYEKHKVYACEVTHQGLSSPVTKSFNRGEC
Molecule B23 returned a dissociation constant Kd in the assay with hPD-L1(ECD)-His of 0.915 nM.

One may read the Kd as the free concentration of one partner at which half of the binding sites on the other are occupied at equilibrium, for simple one-to-one binding.

Source of the values: US20260373285 (published 2026).
